Results as given in PMC4768256, “Using mutagenesis to explore conserved residues in the RNA-binding groove of influenza A virus nucleoprotein for antiviral drug development” (Scientific Reports, 2016).
Like-named read-outs stand apart in the source and are kept apart here.

What was measured:
[1] = biological target: NP WT (Influenza A virus A/TW/12/2001 (H1N1)) (UniProt Q07FI1); experiment: SPR
[2] = biological target: NP WT (Influenza A virus A/TW/12/2001 (H1N1)) (UniProt Q07FI1); experiment: SPR; remark: listed apart in the source

NP WT (Influenza A virus A/TW/12/2001 (H1N1)), sequence (Q07FI1 whole entry): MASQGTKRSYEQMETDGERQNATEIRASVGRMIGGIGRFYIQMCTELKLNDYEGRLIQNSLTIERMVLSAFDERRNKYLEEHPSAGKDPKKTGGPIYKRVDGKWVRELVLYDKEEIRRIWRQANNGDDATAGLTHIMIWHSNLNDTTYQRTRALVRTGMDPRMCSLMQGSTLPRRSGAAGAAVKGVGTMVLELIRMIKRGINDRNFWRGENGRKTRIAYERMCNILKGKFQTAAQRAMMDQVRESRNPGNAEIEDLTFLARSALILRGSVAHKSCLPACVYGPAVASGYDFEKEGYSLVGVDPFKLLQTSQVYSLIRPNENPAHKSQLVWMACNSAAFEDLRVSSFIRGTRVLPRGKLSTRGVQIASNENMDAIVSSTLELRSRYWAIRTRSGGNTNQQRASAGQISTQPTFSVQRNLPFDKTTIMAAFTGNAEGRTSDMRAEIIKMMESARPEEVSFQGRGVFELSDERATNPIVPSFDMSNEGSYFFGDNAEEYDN

## UCCAAACUCCAAACUCCAAACUCCAAAC [(UCCAAAC)4 RNA]
[1]
  Kd: 8.27 nM
[2]
  Kd: 10.4 nM
